{
  "source": "patent US20170037087",
  "molecular_target": "recombinant IL-8 (UniProt P10145)",
  "sequence (P10145 28-99)": "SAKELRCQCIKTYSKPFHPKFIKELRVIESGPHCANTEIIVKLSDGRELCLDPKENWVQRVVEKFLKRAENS",
  "data": [
    {"substance": "SpyCEP in cell-free GAS culture supernatants", "values": [
      {"measurement": "IL-8 degradation (uncleaved IL-8 by ELISA)", "result": "the IL-8 degrading activity of SpyCEP"}
    ]}
  ]
}
